The values below come from patent US20100184652A1 (NEW YORK BLOOD CENTER, published 2010).

Assay [1] addresses T1, GST protein alone (UniProt P08515 1-218 = GST).
T1 construct: Control analyte in SPR; also called glutathione S-transferase
Description: SPR (Biacore 3000), peptide-coupled chip. Here is the method:
The top photograph was incubated with a biotinylated GST-Abl-SH3 domain (GST-Abl-SH3-B). No binding to biotinylated GST (GST-B) was observed (middle panel). […] Panels B-D show binding to the c-Abl SH2 domain. […] No binding to the GST protein alone was observed (not shown). RU, response unit.
Surface Plasmon Resonance Assay. Surface plasmon resonance assay was performed using a Biacore 3000 instrument (BlAcore Inc., Piscataway, N.J.). Biotinylated 14-residue peptides, pY213 or Y213, were coupled to surface of streptavidin-coated (SA) biosensor chip (BIAcore Inc., Piscataway, N.J.). Binding reactions were done in HBS-EP buffer, containing 10 mM HEPES, pH 7.4, 150 mM NaCl, 3 mM EDTA, and 0.05% (v/v) surfactant P20. The surface was regenerated before each new injection using 50 mM NaOH and 1M NaCl. The Biacore instrument was programmed to perform a series of binding assays with increasing concentrations of GST Abl SH2 polypeptide over the same regenerated surface. Sensograms (plots of changes in response unit on the surface as a function of time) derived were analyzed using the software BIAeval 3.0.
On the technique in general: SPR reads the build-up and loss of mass on a sensor chip optically.

Assay [2] has as its target T2, biotinylated GST (UniProt P08515 1-218 = GST, biotinylated (sites not given)).
T2 construct: also called GST-B
Description: blot overlay with biotinylated GST. Here is the method: FIG. 2 is graphs and photographs of western blots showing the identification of the minimal binding region of c-Abl SH3 and SH2 domains in the N-terminus of Abi1. […] Recombinant GST fusion polypeptides containing the N-terminal terminal region of Abi1/Hsshb3p1 were separated on SDS polyacrylamide gels and transferred onto a nitrocellulose membrane. […] The top photograph was incubated with a biotinylated GST-Abl-SH3 domain (GST-Abl-SH3-B). No binding to biotinylated GST (GST-B) was observed (middle panel). […] Panels B-D show binding to the c-Abl SH2 domain. […] No binding to the GST protein alone was observed (not shown). RU, response unit.

Where no end group is shown, it is not given here. [ ]: non-standard residue; d: D form. pY = N[C@@H](Cc1ccc(OP(=O)(O)O)cc1)C(=O)O

T2 sequence (P08515 whole entry): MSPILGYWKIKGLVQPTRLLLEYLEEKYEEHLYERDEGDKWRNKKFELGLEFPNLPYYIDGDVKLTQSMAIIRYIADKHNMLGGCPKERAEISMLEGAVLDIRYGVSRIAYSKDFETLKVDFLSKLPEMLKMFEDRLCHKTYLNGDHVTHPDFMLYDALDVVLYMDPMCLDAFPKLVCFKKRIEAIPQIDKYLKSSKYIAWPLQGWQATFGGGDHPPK
T1 sequence (P08515 whole entry): as above

B1: pY213 peptide (14-residue Abi1 peptide containing phosphorylated tyrosine 213) (peptide)
peptide: VKPPTVPND[pY]MTSP
modifications: also: biotinylated (site not given here)
notes: Biotinylated and coupled to a streptavidin chip in SPR; also called phosphopeptide pY213
For the molecule B1, the binding result in assay [1] is on record as “no binding”.

B2: GST fusion polypeptide of Abi1 N1-172 (other)
chain: MAELQMLLEEEIPSGKRALIESYQNLTRVADYCENNYIQATDKRKALEETKAYTTQSLASVAYQINALANNVLQLLDIQASQLRRMESSINHISQTVDIHKEKVARREIGILTTNKNTSRTHKIIAPANMERPVRYIRKPIDYTVLDDVGHGVKWLKAKHGNNQPARTGTLS
notes: not shown: glutathione S-transferase (GST) from pGEX-2T
For B2, the binding result in assay [2] is given as “no binding”.

B3: GST fusion polypeptide of Abi1 N1-187 (other)
chain: MAELQMLLEEEIPSGKRALIESYQNLTRVADYCENNYIQATDKRKALEETKAYTTQSLASVAYQINALANNVLQLLDIQASQLRRMESSINHISQTVDIHKEKVARREIGILTTNKNTSRTHKIIAPANMERPVRYIRKPIDYTVLDDVGHGVKWLKAKHGNNQPARTGTLSRTNPPTQKPPSPPMS
notes: as for B2
B3: the binding result in assay [2] is listed as “no binding”.
